B1: TCPD_HUMAN (protein, UniProt P50991 2-539, looked up)
T-complex protein 1 subunit …: PENVAPRSGATAGAAGGRGKGAYQDRDKPAQIRFSNISAAKAVADAIRTSLGPKGMDKMIQDGKGDVTITNDGATILKQMQVLHPAARMLVELSKAQDIEAGDGTTSVVIIAGSLLDSCTKLLQKGIHPTIISESFQKALEKGIEILTDMSRPVELSDRETLLNSATTSLNSKVVSQYSSLLSPMSVNAVMKVIDPATATSVDLRDIKIVKKLGGTIDDCELVEGLVLTQKVSNSGITRVEKAKIGLIQFCLSAPKTDMDNQIVVSDYAQMDRVLREERAYILNLVKQIKKTGCNVLLIQKSILRDALSDLALHFLNKMKIMVIKDIEREDIEFICKTIGTKPVAHIDQFTADMLGSAELAEEVNLNGSGKLLKITGCASPGKTVTIVVRGSNKLVIEEAERSIHDALCVIRCLVKKRALIAGGGAPEIELALRLTEYSRTLSGMESYCVRAFADAMEVIPSTLAENAGLNPISTVTELRNRHAQGEKTAGINVRKGGISNILEELVVQPLLVSVSALTLATETVRSILKIDDVVNTR
B2: SNW1_HUMAN (protein, UniProt Q13573 2-536, looked up)
SNW domain-containing protein …: ALTSFLPAPTQLSQDQLEAEEKARSQRSRQTSLVSSRREPPPYGYRKGWIPRLLEDFGDGGAFPEIHVAQYPLDMGRKKKMSNALAIQVDSEGKIKYDAIARQGQSKDKVIYSKYTDLVPKEVMNADDPDLQRPDEEAIKEITEKTRVALEKSVSQKVAAAMPVRAADKLAPAQYIRYTPSQQGVAFNSGAKQRVIRMVEMQKDPMEPPRFKINKKIPRGPPSPPAPVMHSPSRKMTVKEQQEWKIPPCISNWKNAKGYTIPLDKRLAADGRGLQTVHINENFAKLAEALYIADRKAREAVEMRAQVERKMAQKEKEKHEEKLREMAQKARERRAGIKTHVEKEDGEARERDEIRHDRRKERQHDRNLSRAAPDKRSKLQRNENRDISEVIALGVPNPRTSNEVQYDQRLFNQSKGMDSGFAGGEDEIYNVYDQAWRGGKDMAQSIYRPSKNLDKDMYGDDLEARIKTNRFVPDKEFSGSDRRQRGREGPVQFEEDPFGLDKFLEEAKQHGGSKRPSDSSRPKEHEHEGKKRRKE
B3: ERP44_HUMAN (protein, UniProt Q9BS26 30-406, looked up)
Endoplasmic reticulum …: EITSLDTENIDEILNNADVALVNFYADWCRFSQMLHPIFEEASDVIKEEFPNENQVVFARVDCDQHSDIAQRYRISKYPTLKLFRNGMMMKREYRGQRSVKALADYIRQQKSDPIQEIRDLAEITTLDRSKRNIIGYFEQKDSDNYRVFERVANILHDDCAFLSAFGDVSKPERYSGDNIIYKPPGHSAPDMVYLGAMTNFDVTYNWIQDKCVPLVREITFENGEELTEEGLPFLILFHMKEDTESLEIFQNEVARQLISEKGTINFLHADCDKFRHPLLHIQKTPADCPVIAIDSFRHMYVFGDFKDVLIPGKLKQFVFDLHSGKLHREFHHGPDPTDTAPGEQAQDVASSPPESSFQKLAPSEYRYTLLRDRDEL
B4: ODBA_HUMAN (protein, UniProt P12694 46-445, looked up)
2-oxoisovalerate …: SSLDDKPQFPGASAEFIDKLEFIQPNVISGIPIYRVMDRQGQIINPSEDPHLPKEKVLKLYKSMTLLNTMDRILYESQRQGRISFYMTNYGEEGTHVGSAAALDNTDLVFGQYREAGVLMYRDYPLELFMAQCYGNISDLGKGRQMPVHYGCKERHFVTISSPLATQIPQAVGAAYAAKRANANRVVICYFGEGAASEGDAHAGFNFAATLECPIIFFCRNNGYAISTPTSEQYRGDGIAARGPGYGIMSIRVDGNDVFAVYNATKEARRRAVAENQPFLIEAMTYRIGHHSTSDDSSAYRSVDEVNYWDKQDHPISRLRHYLLSQGWWDEEQEKAWRKQSRRKVMEAFEQAERKPKPNPNLLFSDVYQEMPAQLRKQQESLARHLQTYGEHYPLDHFDK
B5: CATA_HUMAN (protein, UniProt P04040 2-527, looked up)
Catalase: ADSRDPASDQMQHWKEQRAAQKADVLTTGAGNPVGDKLNVITVGPRGPLLVQDVVFTDEMAHFDRERIPERVVHAKGAGAFGYFEVTHDITKYSKAKVFEHIGKKTPIAVRFSTVAGESGSADTVRDPRGFAVKFYTEDGNWDLVGNNTPIFFIRDPILFPSFIHSQKRNPQTHLKDPDMVWDFWSLRPESLHQVSFLFSDRGIPDGHRHMNGYGSHTFKLVNANGEAVYCKFHYKTDQGIKNLSVEDAARLSQEDPDYGIRDLFNAIATGKYPSWTFYIQVMTFNQAETFPFNPFDLTKVWPHKDYPLIPVGKLVLNRNPVNYFAEVEQIAFDPSNMPPGIEASPDKMLQGRLFAYPDTHRHRLGPNYLHIPVNCPYRARVANYQRDGPMCMQDNQGGAPNYYPNSFGAPEQQPSALEHSIQYSGEVRRFNTANDDNVTQVRAFYVNVLNEEQRKRLCENIAGHLKDAQIFIQKKAVKNFTEVHPDYGSHIQALLDKYNAEKPKNAIHTFVQSGSHLAAREKANL
B6: PDIP3_HUMAN (protein, UniProt Q9BY77 2-421, looked up)
Polymerase delta-interacting …: ADISLDELIRKRGAAAKGRLNARPGVGGVRSRVGIQQGLLSQSTRTATFQQRFDARQKIGLSDARLKLGVKDAREKLLQKDARFRIKGKVQDAREMLNSRKQQTTVPQKPRQVADAREKISLKRSSPAAFINPPIGTVTPALKLTKTIQVPQQKAMAPLHPHPAGMRINVVNNHQAKQNLYDLDEDDDGIASVPTKQMKFAASGGFLHHMAGLSSSKLSMSKALPLTKVVQNDAYTAPALPSSIRTKALTNMSRTLVNKEEPPKELPAAEPVLSPLEGTKMTVNNLHPRVTEEDIVELFCVCGALKRARLVHPGVAEVVFVKKDDAITAYKKYNNRCLDGQPMKCNLHMNGNVITSDQPILLRLSDSPSMKKESELPRRVNSASSSNPPAEVDPDTILKALFKSSGASVTTQPTEFKIKL
B7: ASNS_HUMAN (protein, UniProt P08243 2-561, looked up)
Asparagine synthetase …: CGIWALFGSDDCLSVQCLSAMKIAHRGPDAFRFENVNGYTNCCFGFHRLAVVDPLFGMQPIRVKKYPYLWLCYNGEIYNHKKMQQHFEFEYQTKVDGEIILHLYDKGGIEQTICMLDGVFAFVLLDTANKKVFLGRDTYGVRPLFKAMTEDGFLAVCSEAKGLVTLKHSATPFLKVEPFLPGHYEVLDLKPNGKVASVEMVKYHHCRDVPLHALYDNVEKLFPGFEIETVKNNLRILFNNAVKKRLMTDRRIGCLLSGGLDSSLVAATLLKQLKEAQVQYPLQTFAIGMEDSPDLLAARKVADHIGSEHYEVLFNSEEGIQALDEVIFSLETYDITTVRASVGMYLISKYIRKNTDSVVIFSGEGSDELTQGYIYFHKAPSPEKAEEESERLLRELYLFDVLRADRTTAAHGLELRVPFLDHRFSSYYLSLPPEMRIPKNGIEKHLLRETFEDSNLIPKEILWRPKEAFSDGITSVKNSWFKILQEYVEHQVDDAMMANAAQKFPFNTPKTKEGYYYRQVFERHYPGRADWLSHYWMPKWINATDPSARTLTHYKSAVKA
B8: K2C1B_HUMAN (protein, UniProt Q7Z794 1-578, looked up)
Keratin, type II cytoskeletal …: MSHQFSSQSAFSSMSRRVYSTSSSAGSGGGSPAVGSVCYARGRCGGGGYGIHGRGFGSRSLYNLGGSRSISINLMGRSTSGFCQGGGVGGFGGGRGFGVGSTGAGGFGGGGFGGAGFGTSNFGLGGFGPYCPPGGIQEVTINQSLLEPLHLEVDPEIQRIKTQEREQIMVLNNKFASFIDKVRFLEQQNQVLQTKWELLQQVNTSTGTNNLEPLLENYIGDLRRQVDLLSAEQMRQNAEVRSMQDVVEDYKSKYEDEINKRTGSENDFVVLKKDVDAAYVSKVDLESRVDTLTGEVNFLKYLFLTELSQVQTHISDTNVILSMDNNRSLDLDSIIDAVRTQYELIAQRSKDEAEALYQTKYQELQITAGRHGDDLKNSKMEIAELNRTVQRLQAEISNVKKQIEQMQSLISDAEERGEQALQDAWQKLQDLEEALQQSKEELARLLRDYQAMLGVKLSLDVEIATYRQLLEGEESRMSGELQSHVSISVQNSQVSVNGGAGGGGSYGSGGYGGGSGGGYGGGRSYRGGGARGRSGGGYGSGCGGGGGSYGGSGRSGRGSSRVQIIQTSTNTSHRRILE
B9: SYYM_HUMAN (protein, UniProt Q9Y2Z4 17-477, looked up)
Tyrosine--tRNA ligase, …: TLNLSVLLPLGLRKAHSGAQGLLAAQKARGLFKDFFPETGTKIELPELFDRGTASFPQTIYCGFDPTADSLHVGHLLALLGLFHLQRAGHNVIALVGGATARLGDPSGRTKEREALETERVRANARALRLGLEALAANHQQLFTDGRSWGSFTVLDNSAWYQKQHLVDFLAAVGGHFRMGTLLSRQSVQLRLKSPEGMSLAEFFYQVLQAYDFYYLFQRYGCRVQLGGSDQLGNIMSGYEFINKLTGEDVFGITVPLITSTTGAKLGKSAGNAVWLNRDKTSPFELYQFFVRQPDDSVERYLKLFTFLPLPEIDHIMQLHVKEPERRGPQKRLAAEVTKLVHGREGLDSAKRCTQALYHSSIDALEVMSDQELKELFKEAPFSEFFLDPGTSVLDTCRKANAIPDGPRGYRMITEGGVSINHQQVTNPESVLIVGQHILKNGLSLLKIGKRNFYIIKWLQL
B10: CH60_HUMAN (protein, UniProt P10809 27-573, looked up)
60 kDa heat shock protein, …: AKDVKFGADARALMLQGVDLLADAVAVTMGPKGRTVIIEQSWGSPKVTKDGVTVAKSIDLKDKYKNIGAKLVQDVANNTNEEAGDGTTTATVLARSIAKEGFEKISKGANPVEIRRGVMLAVDAVIAELKKQSKPVTTPEEIAQVATISANGDKEIGNIISDAMKKVGRKGVITVKDGKTLNDELEIIEGMKFDRGYISPYFINTSKGQKCEFQDAYVLLSEKKISSIQSIVPALEIANAHRKPLVIIAEDVDGEALSTLVLNRLKVGLQVVAVKAPGFGDNRKNQLKDMAIATGGAVFGEEGLTLNLEDVQPHDLGKVGEVIVTKDDAMLLKGKGDKAQIEKRIQEIIEQLDVTTSEYEKEKLNERLAKLSDGVAVLKVGGTSDVEVNEKKDRVTDALNATRAAVEEGIVLGGGCALLRCIPALDSLTPANEDQKIGIEIIKRTLKIPAMTIAKNAGVEGSLIVEKIMQSSSEVGYDAMAGDFVNMVEKGIIDPTKVVRTALLDAAGVASLLTTAEVVVTEIPKEEKDPGMGAMGGMGGGMGGGMF
B11: LAP2A_HUMAN (protein, UniProt P42166 2-694, looked up)
Lamina-associated polypeptide …: PEFLEDPSVLTKDKLKSELVANNVTLPAGEQRKDVYVQLYLQHLTARNRPPLPAGTNSKGPPDFSSDEEREPTPVLGSGAAAAGRSRAAVGRKATKKTDKPRQEDKDDLDVTELTNEDLLDQLVKYGVNPGPIVGTTRKLYEKKLLKLREQGTESRSSTPLPTISSSAENTRQNGSNDSDRYSDNEEGKKKEHKKVKSTRDIVPFSELGTTPSGGGFFQGISFPEISTRPPLGSTELQAAKKVHTSKGDLPREPLVATNLPGRGQLQKLASERNLFISCKSSHDRCLEKSSSSSSQPEHSAMLVSTAASPSLIKETTTGYYKDIVENICGREKSGIQPLCPERSHISDQSPLSSKRKALEESESSQLISPPLAQAIRDYVNSLLVQGGVGSLPGTSNSMPPLDVENIQKRIDQSKFQETEFLSPPRKVPRLSEKSVEERDSGSFVAFQNIPGSELMSSFAKTVVSHSLTTLGLEVAKQSQHDKIDASELSFPFHESILKVIEEEWQQVDRQLPSLACKYPVSSREATQILSVPKVDDEILGFISEATPLGGIQAASTESCNQQLDLALCRAYEAAASALQIATHTAFVAKAMQADISQAAQILSSDPSRTHQALGILSKTYDAASYICEAAFDEVKMAAHTMGNATVGRRYLWLKDCKINLASKNKLASTPFKGGTLFGGEVCKVIKKRGNKH

Each molecule was assayed on KDM4A-I71AzF (assay: CASI: photo-crosslinking with HEK293T cell extracts, StrepTactin enrichment and LC-MS/MS proteomics). Settings: sheet "Final results but with 0.01".
Format: binding, human
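Also: lysates from HEK293T cells pretreated with a KDM4 inhibitor to raise proteome methylation, affinity-purified after ±UV, gel-resolved, trypsin-digested, with exclusive unique peptides per protein averaged per condition.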

Molecule	Fold change (+UV/-UV)
B1	0
B2	2
B3	0.5
B4	1
B5	2
B6	1
B7	2
B8	4
B9	2
B10	1.043
B11	0

From publication PMC10540216, “Activity Guided Azide-methyllysine Photo-trapping for Substrate Profiling of Lysine Demethylases” (Journal of the American Chemical Society, 2023)
